Data: paper PMC7181697, “Molecular basis for assembly of the shieldin complex and its implications for NHEJ” (Nature Communications, 2020)

How the values were obtained:
Conditions in all cases: both partners purified
[1] = biological target: T1, REV7^K44A-SHLD3(1–82)^F38A (human, UniProt Q9UI95 1-211; Q6ZNX1 1-82, K44A | F38A); assay: ITC; ITC200, 25 °C, 20 mM Tris pH 8.0, 150 mM NaCl, 1% glycerol, 1 mM TCEP; one set of sites model
T1 construct: REV7 (MAD2B, MAD2L2), human, full length; SHLD3, human, residues 1-82; cloned without His-tag; source: E. coli BL21(DE3), co-expressed (pETduet), purified (Ni-IDA, SEC)

REV7^K44A-SHLD3(45–82) = biological target: T2, REV7^K44A-SHLD3(45–82) (human, UniProt Q9UI95 1-211; Q6ZNX1 45-82, K44A); assay: as above
T2 construct: REV7 (MAD2B, MAD2L2), human, full length; SHLD3, human, residues 45-82; cloned without His-tag; source: E. coli BL21(DE3), co-expressed (pETduet), purified (Ni-IDA, SEC)

[2] = biological target: T3, REV7^K44A-SHLD3(1–82)^FIPWFP/AIAAAA (human, UniProt Q9UI95 1-211; Q6ZNX1 1-82, K44A | FIPWFP/AIAAAA); assay: as above
T3 construct: REV7 (MAD2B, MAD2L2), human, full length; SHLD3, human, residues 1-82; the FXPWFP motif stands at 38-43; cloned without His-tag; also called REV7^K44A-SHLD3(1–82)^5A; source: E. coli BL21(DE3), co-expressed (pETduet), purified (Ni-IDA, SEC)

[3] = biological target: T4, REV7^E35A-SHLD3(1–82)-REV7^K129A (human, UniProt Q9UI95 1-211; Q6ZNX1 1-82; Q9UI95 1-211, E35A | K129A); assay: SEC; Superdex 200 Increase 10/300 GL, 20 mM Tris/HCl pH 8.0, 150 mM NaCl, 1% glycerol, 1 mM TCEP; proteins mixed and incubated 10 min on ice; 0.5 ml fractions on SDS-PAGE, Coomassie
T4 construct: REV7 (MAD2B, MAD2L2), human, full length; the C-REV7 of the dimer; SHLD3, human, residues 1-82; cloned without His-tag; the O-REV7 of the dimer; also called E35A-1–82 + K129A; reconstituted conformational dimer; source: reconstituted from purified REV7^E35A-SHLD3(1–82) and purified REV7^K129A (both E. coli BL21(DE3)); copies: + +

[4] = biological target: T5, REV7^K44A-SHLD3(1–82)-REV7^K129A (human, UniProt Q9UI95 1-211; Q6ZNX1 1-82; Q9UI95 1-211, K44A | K129A); assay: as above
T5 construct: REV7 (MAD2B, MAD2L2), human, full length; the C-REV7 of the dimer; SHLD3, human, residues 1-82; cloned without His-tag; the O-REV7 of the dimer; also called K44A-1–82 + K129A; reconstituted conformational dimer; source: reconstituted from purified REV7^K44A-SHLD3(1–82) and purified REV7^K129A (both E. coli BL21(DE3)); copies: + +

[5] = biological target: T6, REV7 (full length, wild type) (human, UniProt Q9UI95 1-211); assay: ITC; ITC200, 25 °C, 20 mM Tris pH 8.0, 150 mM NaCl, 1% glycerol, 1 mM TCEP; one set of sites model
T6 construct: REV7 (MAD2B, MAD2L2), human, full length; Two copies (closed C-REV7 and open O-REV7) stand in the crystal structure 6KTO; also called REV7^WT; MAD2B; source: E. coli BL21(DE3), purified (Ni-IDA, SEC); alone or co-expressed with SHLD3 and SHLD2 truncations

REV7^Y63A = biological target: T7, REV7^Y63A (human, UniProt Q9UI95 1-211, Y63A); assay: as above
T7 construct: REV7 (MAD2B, MAD2L2), human, full length; source: E. coli BL21(DE3), purified (Ni-IDA, SEC); alone or co-expressed with SHLD3(1-82)

REV7^W171A = biological target: T8, REV7^W171A (human, UniProt Q9UI95 1-211, W171A); assay: as above
T8 construct: REV7 (MAD2B, MAD2L2), human, full length; source: E. coli BL21(DE3), purified (Ni-IDA, SEC); alone or co-expressed with SHLD3(1-82)

[6] = biological target: T4, REV7^E35A-SHLD3(1–82)-REV7^K129A; assay: as above
REV7^K129A = biological target: T9, REV7^K129A (human, UniProt Q9UI95 1-211, K129A); assay: as above
T9 construct: REV7 (MAD2B, MAD2L2), human, full length; also called O-REV7 (as used in the ITC and SEC experiments); source: E. coli BL21(DE3), purified (Ni-IDA, SEC); alone or co-expressed with SHLD3(1-82)

MBP-REV7^K129A = biological target: T10, MBP-REV7^K129A (human, UniProt Q9UI95 1-211, K129A); assay: SEC; Superdex 200 Increase 10/300 GL, 20 mM Tris/HCl pH 8.0, 150 mM NaCl, 1% glycerol, 1 mM TCEP; proteins mixed and incubated 10 min on ice; 0.5 ml fractions on SDS-PAGE, Coomassie
T10 construct: REV7 (MAD2B, MAD2L2), human; The cloning of this construct is not described in the methods; also called O-REV7; source: E. coli BL21(DE3), purified (Ni-IDA, SEC)
T10 sequence (Q9UI95 whole entry K129A): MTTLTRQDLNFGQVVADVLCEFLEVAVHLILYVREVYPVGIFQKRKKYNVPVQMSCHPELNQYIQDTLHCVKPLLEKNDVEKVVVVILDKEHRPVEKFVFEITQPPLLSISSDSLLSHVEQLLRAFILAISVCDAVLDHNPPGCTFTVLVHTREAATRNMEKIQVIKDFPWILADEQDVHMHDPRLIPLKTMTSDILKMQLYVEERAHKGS

T4 sequence (Q9UI95 whole entry E35A, chain 1 of 2, the tested form may be a part): as the sequence (Q9UI95 whole entry K129A) above, with E35A, A129K counted along it
T4 sequence (Q9UI95 whole entry K129A, chain 3 of 2, the tested form may be a part): as the sequence (Q9UI95 whole entry K129A) above
T1 sequence (Q9UI95 whole entry K44A, the tested form may be a part, one chain of several): as the sequence (Q9UI95 whole entry K129A) above, with K44A, A129K counted along it
T3 sequence (Q9UI95 whole entry K44A, the tested form may be a part, one chain of several): as the sequence (Q9UI95 whole entry K129A) above, with K44A, A129K counted along it
T2 sequence (Q9UI95 whole entry K44A, the tested form may be a part, one chain of several): as the sequence (Q9UI95 whole entry K129A) above, with K44A, A129K counted along it
T5 sequence (Q9UI95 whole entry K44A, chain 1 of 2, the tested form may be a part): as the sequence (Q9UI95 whole entry K129A) above, with K44A, A129K counted along it
T5 sequence (Q9UI95 whole entry K129A, chain 3 of 2, the tested form may be a part): as the sequence (Q9UI95 whole entry K129A) above
T9 sequence (Q9UI95 whole entry K129A): as above
T8 sequence (Q9UI95 whole entry W171A): as the sequence (Q9UI95 whole entry K129A) above, with A129K, W171A counted along it
T7 sequence (Q9UI95 whole entry Y63A): as the sequence (Q9UI95 whole entry K129A) above, with Y63A, A129K counted along it
T6 sequence (Q9UI95 whole entry, the tested form may be a part): as the sequence (Q9UI95 whole entry K129A) above, with A129K counted along it

B1: cREV1 CTD (chimeric REV1 CTD: POL κ RIR fused to the N-terminus of REV1 CTD) (other, UniProt Q9UBT6 562-577, looked up)
chain: SHKKSFFDKKRSERKWGLSSLQSDPAGCVRPPAPNLAGAVEFNDVKTLLREWITTISDPMEEDILQVVKYCTDLIEEKDLEKLDLVIKYMKRLMQQSVESVWNMAFDFILDNVQVVLQQTYGSTLKVT
notes: source: E. coli BL21(DE3), purified (Ni-IDA, SEC)
Kd [1]: 6500 nM | Kd (REV7^K44A-SHLD3(45–82)): 1400 nM | Kd [2]: 1100 nM

B2: MBP-SHLD2(1–60) (domain or fragment, human, UniProt Q86V20 1-60, looked up)
chain: MSGGSQVHIFWGAPIAPLKITVSEDTASLMSVADPWKKIQLLYSQHSLYLKDEKQHKNLE
notes: SHLD2, human, residues 1-60; Modified pET28a(+) with His6-MBP tag; also called MBP-1–60; source: E. coli BL21(DE3), purified (Ni-IDA, SEC); not shown: MBP, N-terminal, kept
binding result [3]: binds | binding result [4]: binds

B3: SHLD3(1–82) with C-terminal His6-tag (domain or fragment, human, UniProt Q6ZNX1 1-82, looked up)
chain: MTTEVILHYRPCESDPTQLPKIAEKAIQDFPTRPLSRFIPWFPYDGSKLPLRPKRSPPVISEEAAEDVKQYLTISEHDAKSH
notes: SHLD3, human, residues 1-82; SHLD3(1-82) expressed alone for biochemical studies (pET28a(+)); source: E. coli BL21(DE3), purified (Ni-IDA, SEC)
Kd [5]: ~130 nM | Kd (REV7^Y63A): ~200 nM | Kd (REV7^W171A): ~200 nM

B4: REV3(1847-1906) (domain or fragment, human, UniProt O60673 1847-1906, looked up)
chain: MLTPTPDSSPRSTSSPSQSKNGSFTPRTANILKPLMSPPSREEIMATLLDHDLSETIYQE
notes: amplified from cDNA of Jurkat cells; The methods name two vectors for REV3 truncations (His6-MBP and C-terminal His6); also called RBM1 of REV3; source: E. coli BL21(DE3), purified (Ni-IDA, SEC)
Kd [6]: 46 nM | binding result (REV7^K129A): binds

B5: MBP-REV3(1847-1906) (domain or fragment, human, UniProt O60673 1847-1906, looked up)
chain: MLTPTPDSSPRSTSSPSQSKNGSFTPRTANILKPLMSPPSREEIMATLLDHDLSETIYQE
notes: Modified pET28a(+) with His6-MBP tag; source: E. coli BL21(DE3), purified (Ni-IDA, SEC)
binding result (MBP-REV7^K129A): binds
